The values below come from paper PMC7305299, “Nonsense-mediated mRNA decay factor UPF1 promotes aggresome formation” (Nature Communications, 2020).

This assay has as its target T1, FLAG-UPF1-HP (UniProt Q92900-2 1-1118, G495R | G497E, hyperphosphorylated in cells (detected with an anti-phospho-(S/T)Q antibody); sites not stated).
T1 construct: UPF1 with G495R and G497E in the helicase domain; also called FLAG-UPF1-(G495R/G497E); hyperphosphorylated UPF1; source: HEK293T, transiently transfected (pcDNA3-FLAG-UPF1-HP), in RNase A-treated cell extract
T1 sequence (looked up): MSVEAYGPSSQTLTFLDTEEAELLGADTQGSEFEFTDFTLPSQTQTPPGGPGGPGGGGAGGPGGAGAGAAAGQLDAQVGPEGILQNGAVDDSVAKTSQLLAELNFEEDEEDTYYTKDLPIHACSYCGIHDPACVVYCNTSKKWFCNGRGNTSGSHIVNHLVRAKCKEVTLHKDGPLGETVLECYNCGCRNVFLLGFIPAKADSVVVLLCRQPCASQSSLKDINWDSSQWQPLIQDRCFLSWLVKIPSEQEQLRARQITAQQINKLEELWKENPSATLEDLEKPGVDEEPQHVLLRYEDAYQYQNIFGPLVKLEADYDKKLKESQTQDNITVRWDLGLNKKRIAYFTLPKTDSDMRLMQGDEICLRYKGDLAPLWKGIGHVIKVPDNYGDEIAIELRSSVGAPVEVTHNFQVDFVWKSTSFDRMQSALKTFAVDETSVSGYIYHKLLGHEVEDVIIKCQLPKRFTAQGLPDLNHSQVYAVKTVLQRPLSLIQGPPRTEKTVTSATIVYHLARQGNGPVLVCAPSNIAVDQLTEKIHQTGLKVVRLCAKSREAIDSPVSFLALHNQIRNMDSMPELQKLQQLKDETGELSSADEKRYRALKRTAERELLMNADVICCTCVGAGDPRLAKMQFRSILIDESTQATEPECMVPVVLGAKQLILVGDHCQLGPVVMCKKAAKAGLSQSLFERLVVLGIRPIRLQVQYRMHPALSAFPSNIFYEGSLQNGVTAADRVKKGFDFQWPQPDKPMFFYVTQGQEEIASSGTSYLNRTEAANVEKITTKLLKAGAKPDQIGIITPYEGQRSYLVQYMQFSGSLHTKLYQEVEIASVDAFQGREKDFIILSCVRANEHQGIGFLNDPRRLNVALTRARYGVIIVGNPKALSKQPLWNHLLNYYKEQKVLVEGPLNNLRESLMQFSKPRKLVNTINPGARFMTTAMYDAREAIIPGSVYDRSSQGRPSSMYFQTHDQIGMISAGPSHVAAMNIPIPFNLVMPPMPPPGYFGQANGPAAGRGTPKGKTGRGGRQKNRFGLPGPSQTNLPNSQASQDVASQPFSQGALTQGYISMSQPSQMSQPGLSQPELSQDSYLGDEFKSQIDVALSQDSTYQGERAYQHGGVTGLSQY
The experiment in a line: co-IP; anti-FLAG IP of FLAG-UPF1 (WT or a variant) from RNase A-treated extracts of transiently transfected HEK293T cells; cells treated with DMSO or MG132 for 12 h (Fig. 5a,b), for polypeptidyl-puro with MG132 12 h and puromycin 1 h (Fig. 5d), with or without eEF1A1 siRNA (Fig. 5e); NET-2 buffer, 4 °C; western blotting. The settings on record: partners not purified.

B1: DCP1A, cellular (natural protein, human (endogenous in HEK293T), UniProt Q9NPI6 1-582, looked up)
chain: MEALSRAGQEMSLAALKQHDPYITSIADLTGQVALYTFCPKANQWEKTDIEGTLFVYRRSASPYHGFTIVNRLNMHNLVEPVNKDLEFQLHEPFLLYRNASLSIYSIWFYDKNDCHRIAKLMADVVEEETRRSQQAARDKQSPSQANGCSDHRPIDILEMLSRAKDEYERNQMGDSNISSPGLQPSTQLSNLGSTETLEEMPSGSQDKSAPSGHKHLTVEELFGTSLPKEQPAVVGLDSEEMERLPGDASQKEPNSFLPFPFEQLGGAPQSETLGVPSAAHHSVQPEITTPVLITPASITQSNEKHAPTYTIPLSPVLSPTLPAEAPTAQVPPSLPRNSTMMQAVKTTPRQRSPLLNQPVPELSHASLIANQSPFRAPLNVTNTAGTSLPSVDLLQKLRLTPQHDQIQTQPLGKGAMVASFSPAAGQLATPESFIEPPSKTAAARVAASASLSNMVLAPLQSMQQNQDPEVFVQPKVLSSAIPVAGAPLVTATTTAVSSVLLAPSVFQQTVTRSSDLERKASSPSPLTIGTPESQRKPSIILSKSQLQDTLIHLIKNDSSFLSTLHEVYLQVLTKNKDNHNL
notes: DCP1A (component of the decapping complex), cellular protein co-immunopurified from HEK293T extracts; source: endogenous, HEK293T extract
Take B1: the “fold more co-immunopurified than with UPF1-WT or UPF1-HP-12A” value was around 5 fold.
